Reference: IntAct's records for PubMed 11739743

B1: Cell cycle protein kinase spo4 (Schizosaccharomyces pombe (strain ATCC 38366 / 972)), Q9UQY9 (parent)
chain: MLSMLLPFGNSGVYASDVDREDRPEIAKLVQAFPTIEEDYHVVKLVGAGSFSSVFKAVDRHFDSYDNSYWISSQIEDQMPHDKTKRPKNHFVALKRIYATVLPSRIQTELEMLHELRGSDCVLNMITAVRHQDQVLIVLPFIQHAEFRDFYMKYSLPEIGAYLRDLLKGLAHIDAKGIIHRDIKPGNFAWNPYTQRGVILDFGLAQWQEADAPTENCCVDKLRKLKQEGKYYDYFPFEKTIADPPEGYLLHDPRPTKRADRAGTRGFRAPEVLFRCQNQTSSIDVWSVGVILLCFLTHRYPFFRCEDDIDAIVELAHIFGRNGMSNCALLHGQIWSDNIPTLLDQKHNWLDLIASITKNDENLILETSSDYQVALAIDLLDKLLELHPSKRVKAKTALQHEFFNACGVTRSGFEAENPFRSDFPSTVEQ
partner: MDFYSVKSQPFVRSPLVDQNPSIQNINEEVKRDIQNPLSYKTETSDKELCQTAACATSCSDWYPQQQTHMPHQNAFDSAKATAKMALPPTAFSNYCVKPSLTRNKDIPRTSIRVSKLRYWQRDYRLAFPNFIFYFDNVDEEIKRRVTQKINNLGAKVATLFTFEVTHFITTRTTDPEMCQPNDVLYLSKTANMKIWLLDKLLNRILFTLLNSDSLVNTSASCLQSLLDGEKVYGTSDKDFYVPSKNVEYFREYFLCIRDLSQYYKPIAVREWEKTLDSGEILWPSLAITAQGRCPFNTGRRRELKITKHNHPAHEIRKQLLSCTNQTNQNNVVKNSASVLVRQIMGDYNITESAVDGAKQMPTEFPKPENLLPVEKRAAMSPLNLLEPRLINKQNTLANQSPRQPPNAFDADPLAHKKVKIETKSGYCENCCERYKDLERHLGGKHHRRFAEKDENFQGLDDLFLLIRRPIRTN

Variants of: B1
Settings: with spo6_schpo spo6, Q9Y7J1

Variant | effect of a mutation on the interaction
MLSMLLPFGNSGVYASDVDREDRPEIAKLVQAFPTIEEDYHVVKLVGAGSFSSVFKAVDRHFDSYDNSYWISSQIEDQMPHDKTKRPKNHFVALARIYATVLPSRIQTELEMLHELRGSDCVLNMITAVRHQDQVLIVLPFIQHAEFRDFYMKYSLPEIGAYLRDLLKGLAHIDAKGIIHRDIKPGNFAWNPYTQRGVILDFGLAQWQEADAPTENCCVDKLRKLKQEGKYYDYFPFEKTIADPPEGYLLHDPRPTKRADRAGTRGFRAPEVLFRCQNQTSSIDVWSVGVILLCFLTHRYPFFRCEDDIDAIVELAHIFGRNGMSNCALLHGQIWSDNIPTLLDQKHNWLDLIASITKNDENLILETSSDYQVALAIDLLDKLLELHPSKRVKAKTALQHEFFNACGVTRSGFEAENPFRSDFPSTVEQ [K95A] | with no effect
